The target in data set [1] is T1, HER2 (Homo sapiens, UniProt P04626). The data set can be described thus: Rat urine analysed on a HER2-Biacore SPR chip. It counts as in vivo. As to conditions: 10-fold concentrated urine, compared to free scFv samples. The protocol: (A) A single i.v. dose was injected into male Sprague-Dawley rats at 4 mg/kg. Plasma samples were taken at time points indicated and analysed by ELISA using anti-protein detection (total protein, indicated by solid lines, closed symbols) and where relevant anti-drug detection (total ADC, indicated by dashed lines, open symbols). The SE of the mean of each group and experimental triplicates are shown. ADC scFv (TCT1067)-P5C5 (circles) (n=3) and scFv (TCT1067) (squares) (n=3). (B) 10-fold concentrated urine collected over 24 hours analysed on a HER2-Biacore SPR chip for the scFv (TCT1067)-injected rats, 3 animal samples. The scFv reference is shown. The bulk shifts in the urine samples are due to the concentration of urine components. (C) 10-fold concentrated urine collected over 24 hours analysed on a HER2-Biacore SPR chip for the scFv (TCT1067)-P5C5 conjugate-injected rats, 3 animal samples. The scFv (TCT1067)-P5C5 reference is shown. The bulk shifts in the urine samples are due to the concentration of urine components.
The scFv (TCT1067)-P5C5 conjugate were detected in the plasma via its T7 tag (detecting total antibody) and via the payload (detecting total ADC). […] The urine from the treated animals was collected over 24 hours, concentrated 10-fold in a spin concentrator (MWCO-10 kDa) and dialysed against PBS. These samples, from three rats per group, were analysed on a Biacore SPR chip.

Data set [2] can be described thus: Plasma pharmacokinetics in Sprague-Dawley rats (ELISA). It counts as in vivo, rat. As to conditions: for Bioavailability (blood exposure, AUC, 24 hrs): mean AUC in anti-payload and anti-protein detection; for Elimination half-life (hrs) Total Antibody: plasma ELISA. The protocol: Rats. Male Sprague-Dawley rats (sourced from Charles River, UK) were group housed in a temperature and light controlled facility on a 12 hour light/dark cycle with food and water available ad libitum. Rats selected for study inclusion were individually housed until completion of the study. All animals were subjected to health monitoring in accordance with the guidelines by the onsite home office registered veterinarian. All animal experimentation was covered under the UK Animals (Scientific Procedures) Act (1986) and EU directive 86/609/EEC. All such work was monitored by regular inspections of procedures and facilities by the on-site Veterinarian and UK Home Office inspectors. The study design required the surgical implantation of catheters into the jugular of male Sprague-Dawley rats.
Rats were anaesthetised using the inhalation anaesthetic isoflurane and placed in dorsal recumbency. The right jugular vein was exposed and a loose ligature was placed caudally and the cranial end of vein was ligated. A small incision was made between the ligatures into which the catheter (polyethylene 50 tubing) was inserted. The catheter was secured in place by tying the loose ligature around the catheterised vessel. A small incision was made in the scapular region to serve as the exit site of the catheter. The catheter was subcutaneously tunneled and exteriorised through the scapular incision. Patency of the catheter was tested, and the catheter was filled with a locking solution (heparinised saline) and sealed with a stainless steel pin. Post-operative monitoring of animals was performed according to Home Office good practice guidelines. Intravenous dosing was via the tail vein.
(§1) Therapeutic (test) Agents. All test agents were supplied as ready-to-dose dosing solutions. All dosing solutions were stored at 4° C. until dosed. All treatments were administered in a dosing volume scaled to the body weights of the individual animals to obtain the dosing concentration described in the treatment tables.
Treatment (rats). On Day 1 of the study, rats were divided into groups of three animals (per test agent being evaluated), and dosing was initiated according to the treatment plan summarized in the tables below
Sampling (rats). Serial venous blood samples (approx. 0.1-0.2 ml) were collected via the exteriorised jugular vein catheter at specified time points (0.5 to 72 hrs post dosing) and placed in heparinised containers. Prior to taking the blood samples the catheter was evacuated of heparinised saline to prevent dilution of the blood sample. Following each blood sample the volume of blood removed is replaced with an equal volume of heparinised saline via the catheter and sealed. Blood samples were centrifuged (5 minutes, 16,100 g, 4° C.) to separate the plasma. Plasma samples were transferred to fresh containers and promptly frozen and stored at −20° C. until used for analysis.
(§2) Quantification of test agents in plasma. An ELISA was carried out as described in Example 31 The detecting antibodies were (a) Anti-T7 tag to detect the scFv (total antibody), (b) Anti-Human Fab-specific to detect trastuzumab (total antibody), (c) Anti-MMAF (Concortis), Anti-MMAE (Concortis), anti-DM1
(§3) (Concortis) and anti-cemadotin (in-house mouse monoclonal antibody, Example 33 that also recognised P5C5 and AuristatinF), total ADC. The reference test agents were used to construct a calibration curve for which the plasma samples were compared to, in order to quantify the amount present. The concentration was plotted against time (average of three animals with standard error) and fitted to a 2-phase decay curve using GraphPad Prism to derive kinetic parameters.

A short description of data set [3]: Concentration reached and storage stability of purified conjugates in buffer. As to conditions: after purification and concentration. It counts as physicochemical.
Data set [4] relates to BT474 human breast carcinoma xenografts. The data set can be described thus: Tumour penetration in BT474 xenografts, immunohistochemistry 2 hrs post dose. It counts as in vivo, mouse. The note with it: 5 mg/kg single i.v. dose, SCID mice, BT474, payload detection (total ADC). The procedure: (§4) Mice. […] The animals were fed ad libitum water (reverse osmosis, 1 ppm Cl), and NIH 31 Modified and Irradiated Lab Diet® consisting of 18.0% crude protein, 5.0% crude fat, and 5.0% crude fiber. The mice were housed on irradiated Enrich-o'cobs™ Laboratory Animal Bedding in static microisolators on a 12-hour light cycle at 20-22° C. (68-72° F.) and 40-60% humidity. Charles River Discovery Services North Carolina (CR Discovery Services, who carried out this contracted R&D) specifically complies with the recommendations of the Guide for Care and Use of Laboratory Animals with respect to restraint, husbandry, surgical procedures, feed and fluid regulation, and veterinary care. The animal care and use program at CR Discovery Services is accredited by the Association for Assessment and Accreditation of Laboratory Animal Care International (AAALAC), which assures compliance with accepted standards for the care and use of laboratory animals.
Therapeutic (test) Agents. […] All dosing solutions were stored at 4° C. until dosed. […] Treatment.

The nature of data set [5]: Body weight and tolerability in BT474 xenograft studies. The note with it: BT474 xenograft study. It counts as in vivo, mouse. From the text: Treatment-Related Side Effects. Test animals were weighed Day 1. Animals were observed frequently for overt signs of any adverse, treatment-related side effects. Individual body weight loss was monitored every other day and any animal whose weight exceeded the limits for acceptable body weight loss was euthanized. Group mean body weight loss also was monitored as per protocol. Acceptable toxicity for the maximum tolerated dose (MTD) was defined as a group mean body weight loss of less than 20% during the test.

In data set [6] the test system is BT474 human breast carcinoma xenografts. The experiment in a line: Tumour growth inhibition or eradication in BT474 xenograft model. It counts as in vivo. The protocol: as §4, with “care.” for “care. The animal care and use program at CR Discovery Services is accredited by the Association for Assessment and Accreditation of Laboratory Animal Care International (AAALAC), which assures compliance with accepted standards for the care and use of laboratory animals.”
Tumor weight may be estimated with the assumption that 1 mg is equivalent to 1 mm^3 of tumor volume.

Data set [7] is described as follows: Plasma pharmacokinetics in BALB/c mice (ELISA, total antibody and total ADC). It counts as in vivo, mouse. The note with it: for Bioavailability (blood exposure, AUC, 24 hrs) / Elimination half-life (hrs) Total Antibody: mice; for Bioavailability (blood exposure, AUC, 24 hrs): mean AUC in anti-payload and anti-protein detection; for Elimination half-life (hrs) Total Antibody: plasma ELISA. The procedure:
Mice. Female BALB/c mice (BALB/cAnNCrl, Charles River) were eight weeks old with body weights ranging from 15.9 to 21.9 grams at the beginning of the study. The animals were fed ad libitum water (reverse osmosis, 1 ppm Cl) and NIH 31 Modified and Irradiated Lab Diet® consisting of 18.0% crude protein, 5.0% crude fat, and 5.0% crude fiber. The mice were housed on irradiated Enrich-o'cobs™ Laboratory Animal Bedding in static microisolators on a 12-hour light cycle at 20-22° C. (68-72° F.) and at 40-60% humidity. Charles River Discovery Services North Carolina (CR Discovery Services, who carried out this contracted R&D) specifically complies with the recommendations of the Guide for Care and Use of Laboratory Animals with respect to restraint, husbandry, surgical procedures, feed and fluid regulation, and veterinary care. The Animal Care and Use program at CR Discovery Services is accredited by the Association for Assessment and Accreditation of Laboratory Animal Care International, which assures compliance with accepted standards for the care and use of laboratory animals.
as §1
Treatment (mice). On Day 1 of the study, mice were divided into groups each consisting of eighteen mice (per test agent being evaluated), and dosing was initiated according to the treatment plan summarized in the treatment tables. All doses were administered intravenously (i.v.) by tail vein injection as described in the tables below.
Endpoint. The study endpoint occurred after the last sampling point, typically on Day 2 or 4, twenty-four or seventy-two hours post dose.
Sampling (mice). Blood (full blood volume) was collected from three animals per treatment group per timepoint. Samples were collected from all animals via terminal cardiac puncture under isoflurane anesthesia. Once collected, blood samples were collected into collection tubes containing lithium heparin or K2EDTA as anticoagulants and were processed for plasma at each timepoint. Each plasma sample was stored at −80° C. until used for analysis.
as §2, §3

For data set [8], the target named is T1, HER2. The experiment in a line: Biacore SPR binding to immobilised HER2. As to conditions: immobilised HER2. Put shortly:
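HER2 amine-coupled on CM5 or CM3 chips, Biacore T200. Free antibody (typically 5-0.6 μg/ml) and conjugates (20-2.5 μg/ml) injected 160 s at 30 μl/min, 900 s dissociation (3600 s at highest concentration); regeneration with 8M MgCl2. Kinetics compared with unmodified scFv.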

Data set [9] has as its target T1, HER2. As to conditions: by mutagenesis, Schier R et al (1996); cited from earlier work.
Data set [10] in a line: Aggregation by HPLC size-exclusion chromatography. It counts as physicochemical. The protocol: Aggregation can be tested by analytical size-exclusion HPLC measuring the percentage of high molecular weight material compared to the conjugate eluting at a retention time characteristic of a monomeric conjugate.
Typically, 20 μg of protein was injected for analytical runs and 300 μg for semi-preparative runs.

Where [11] appears, read: single i.v. dose 4 mg/kg, male Sprague-Dawley rats.

“And” between values parts separate entries of the source, which are not always exact repeats. Equal entries are not always repeated.

B1: scFv (TCT1067)-P5-C5 (conjugate)
scFv: SGSGGSGQVQLVQSGAEVKKPGESLKISCKGSGYSFTSYWIAWVRQMPGKGLEYMGLIYPGDSDTKYSPSFQGQVTISVDKSVSTAYLQWSSLKPSDSAVYFCARHDVGYCTDRTCAAWPEWLGVWGQGTLVTVSSGGGGSGGGGSGGGGSQSVLTQPPSVSAAPGQKVTISCSGSSSNIGNNYVSWYQQLPGTAPKLLIYGHTNRPAGVPDRFSGSKSGTSASLAISGFRSEDEADYYCASWDYTLSGWVFGGGTKLTVLMASMTGGQQMG
On to B1, for which the “HER2 binding activity in urine collected over 24 hours” value with HER2 [1] is on record as “comparable binding activity”. For the same molecule, in data set [2] (rats, 1 × 4 mg/kg, Table 64), the “Bioavailability (blood exposure, AUC, 24 hrs)” value was 90.1 μghr/ml and the “Elimination half-life (hrs) Total Antibody” value turned out to be 0.512 h. Besides, the “Elimination half-life (hrs) Total ADC” value in data set [2] (rats, 1 × 4 mg/kg, plasma ELISA anti-payload, Table 64) is 2.2085 h. Besides, in [2] (setting [11]), the “increase in bioavailability (AUC) over unmodified scFv” value was found to be 4.5 fold and the “plasma clearance (in words)” value is on record as “clears more slowly than the unmodified fragment”. In data set [2] (single i.v. dose 4 mg/kg, rats), the “stability in plasma (total antibody vs total ADC clearance lines)” value is recorded as “stable in plasma” and the “volume of distribution compared to unmodified scFv” value is “lower volume of distribution”. Also, the “time stable in the buffer” value in data set [3] was “several months”. In addition, in data set [4], the “localisation in tumour sections at 2 hrs post-dosing” value was “localise throughout the tumour”. Moreover, in data set [5], the “body weight, heavier than the IgG ADC group of mice” value is “up to 20%” and the “tolerability from body weights (in words)” value is listed as “better tolerated”. The molecule also showed a tumour growth delay in data set [6] (5 mg/kg dosing regimen) of around 20 days. Also, the “tumour shrinkage compared with the trastuzumab ADC” value in [6] (scFv ADC dosed more frequently) is listed as “more effectively”.

B2: scFv (TCT1067) (protein)
scFv: B1 scFv
For the molecule B2, the “Bioavailability (blood exposure, AUC, 24 hrs)” value in data set [7] (1 × 2 mg/kg, Table 61 (AF-C5)) was found to be 8.13 μghr/ml; in [7] (1 × 2 mg/kg, Table 62), 8.13 μghr/ml; in [7] (1 × 5 mg/kg, Table 57), 8.12 μghr/ml; in data set [2] (rats, 1 × 4 mg/kg, Table 64) it was 20.46 μghr/ml. The “Elimination half-life (hrs) Total Antibody” value in data set [7] (1 × 2 mg/kg, Table 61 (AF-C5)) was 1.05 h; in data set [7] (1 × 2 mg/kg, Table 62), 1.05 h; in data set [7] (1 × 5 mg/kg, Table 57), 1.05 h; in [2] (rats, 1 × 4 mg/kg, Table 64) it was 0.8 h. The “plasma clearance (in words)” value in data set [7] (single i.v. dose, female BALB/c mice (5 mg/kg MMAF-C5, P5C5; 2 mg/kg AF-C5, DM1)) was “clears rapidly”; in data set [2] (setting [11]), “clears rapidly”. In the data set with HER2 [8], the association rate is 3.9e+06 M⁻¹ s⁻¹ and 3.88e+06 M⁻¹ s⁻¹. For the same molecule, in the data set with HER2 [8], the dissociation rate was 3.7e-05 s⁻¹ and 3.69e-05 s⁻¹. In addition, the “increase of binding affinity over the anti-HER2 scFv of Example 27” value with HER2 [9] was “over 1000 fold”. For the same molecule, the “% aggregate by HPLC-SEC (FIG. 71)” value in data set [10] (scFv conjugation reaction with 5 molar equivalents of Auristatin F-C5 NHS (reactions 1 and 4)) was found to be 0%; in data set [10] (scFv conjugation reaction with 10 molar equivalents of Auristatin F-C5 NHS (reactions 2 and 5)) it was 0%; in [10] (scFv conjugation reaction with 25 molar equivalents of Auristatin F-C5 NHS (reactions 3 and 6)), 0%.

Values taken from patent US11202837B2, “Biological materials and uses thereof” (Antikor Biopharma Limited, priority 2014, dated 2021).
